# Measurements published in article doi:10.1101/2025.10.03.680009.
# How the values were obtained:
# [1] = biological target: GST-TbPEX6 (full-length) (Trypanosoma brucei); test: AlphaScreen or HTRF
# [2] = biological target: tag-free TbPEX6 (Trypanosoma brucei); test: SEC
# GST-PreScission protease = test: SEC
Substance,Kd [1] [nM],stoichiometry N [2],stoichiometry N (GST-PreScission protease)
Tag-free TbPEX15ΔTM (1-320aa) (domain or fragment),15.3 to 30.4,–,–
His6-TbPEX15ΔTM (1-320aa) (domain or fragment),10.3,1,–
GST-PreScission protease (enzyme),–,–,2
